The values below come from publication PMC3350567 (Structure(London, England:1993), 2012).

The labels stand for the following.
T1: CCT8, subunit of bovine TRiC/CCT (bTRiC) (Bos taurus, UniProt Q3ZCI9 1-548)
T1 sequence (looked up): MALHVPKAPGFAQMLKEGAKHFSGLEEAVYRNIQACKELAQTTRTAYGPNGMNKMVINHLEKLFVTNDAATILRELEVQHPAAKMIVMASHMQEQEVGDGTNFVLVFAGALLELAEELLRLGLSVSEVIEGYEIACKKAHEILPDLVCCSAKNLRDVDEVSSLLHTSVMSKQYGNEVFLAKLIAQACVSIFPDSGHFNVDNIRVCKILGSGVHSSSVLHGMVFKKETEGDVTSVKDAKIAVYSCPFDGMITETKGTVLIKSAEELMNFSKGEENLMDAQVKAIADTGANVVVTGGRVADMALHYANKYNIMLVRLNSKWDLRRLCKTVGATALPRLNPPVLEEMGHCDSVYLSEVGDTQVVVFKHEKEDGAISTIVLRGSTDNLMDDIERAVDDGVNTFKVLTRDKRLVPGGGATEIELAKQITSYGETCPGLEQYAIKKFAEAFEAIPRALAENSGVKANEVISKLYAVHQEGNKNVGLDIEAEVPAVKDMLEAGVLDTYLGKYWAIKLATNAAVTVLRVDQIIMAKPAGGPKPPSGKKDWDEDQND

B1: CCT2, subunit of bovine TRiC/CCT (bTRiC) (natural protein, Bos taurus, UniProt Q3ZBH0 1-535, looked up)
chain: MASLSLAPVNIFKAGADEERAETARLSSFIGAIAIGDLVKSTLGPKGMDKILLSSGRDASLMVTNDGATILKNIGVDNPAAKVLVDMSRVQDDEVGDGTTSVTVLAAELLREAESLIAKKIHPQTIIAGWREATKAARQALLNSAVDHGSDEVKFRQDLMNIAGTTLSSKLLTHHKDHFTKLAVEAVLRLKGSGNLEAIHVIKKLGGSLADSYLDEGFLLDKKIGVNQPKRIENAKILIANTGMDTDKIKIFGSRVRVDSTAKVAEIEHAEKEKMKEKVERILKHGINCFINRQLIYNYPEQLFGAAGVMAIEHADFVGVERLALVTGGEIASTFDHPELVKLGSCKLIEEVMIGEDKLIHFSGVALGEACTIVLRGATQQILDEAERSLHDALCVLAQTVKDSRTVYGGGCSEMLMAHAVTQLASRTPGKEAVAMESYAKALRMLPTIIADNAGYDSADLVAQLRAAHSEGKTTAGLDMKEGTIGDMSVLGITESFQVKRQVLLSAAEAAEVILRVDNIIKAAPRKRVPDHHPC
B2: CCT4, subunit of bovine TRiC/CCT (bTRiC) (natural protein, Bos taurus, UniProt Q2T9X2 1-542, looked up)
chain: MPENVAPRTGPPAGAAGAAGGRGKSAYQDRDKPAQIRFSNISAAKAVADAIRTSLGPKGMDKMIQDGKGDVTITNDGATILKQMQVLHPAARMLVELSKAQDIEAGDGTTSVVIIAGSLLDSCTKLLQKGIHPTIISESFQKALEKGIEILTDMSRPEELSDRETLLNSAATSLNSKVVSQYSSLLSPMSVDAVMKVIDPATATSVDLRDIKIVKKLGGTIDDCELVEGLVLTQKVANSGITRVEKAKIGLIQFCLSAPKTDMDNQIVVSDYVQMDRVLREERAYILNLVKQIKKTGCNVLLIQKSILRDALSDLALHFLNKMKIMVVKDIEREDIEFICKTIGTKPVAHVDQFTADMLGSAELAEEVSLNGSGKLIKITGCASPGKTVTIVVRGSNKLVIEEAERSIHDALCVIRCLVKKRALIAGGGAPEIELALRLTEYSRTLSGMESYCIRAFADAMEVIPSTLAENAGLNPISTVTELRNRHAQGEKTTGINVRKGGISNILEEQVVQPLLVSVSALTLATETVRSILKIDDVVNTR
B3: CCT3, subunit of bovine TRiC/CCT (bTRiC) (natural protein, Bos taurus, UniProt Q3T0K2 1-545, looked up)
chain: MMGHRPVLVLSQNTKRESGRKVQSGNINAAKTIADIIRTCLGPKSMMKMLLDPMGGIVMTNDGNAILREIQVQHPAAKSMIEISRTQDEEVGDGTTSVIILAGEMLSVAEHFLEQQMHPTVVISAYRKALDDMISTLKKISIPVDTSNRDTMLNIINSSITTKVISRWSSLACNIALDAVKTVQFEENGRKEIDIKKYARVEKIPGGIIEDSCVLRGVMINKDVTHPRMRRYIKNPRIVLLDSSLEYKKGESQTDIEITREEDFTRILQMEEEYIQQLCEDIIQLKPDVVITEKGISDLAQHYLMRANITAIRRVRKTDNNRIARACGARIVSRPEELREEDVGTGAGLLEIKKIGDEYFTFITECKDPKACTILLRGASKEILSEVERNLQDAMQVCRNVLLDPQLVPGGGASEMAVAHALTEKSKAMTGVEQWPYRAVAQALEVIPRTLIQNCGASTIRLLTSLRAKHTQENCETWGVNGETGTLVDMKELGIWEPLAVKLQTYKTAVETAVLLLRIDDIVSGHKKKGDDQSRQGGAPDAGQE
B4: CCT2, subunit of yeast TRiC/CCT (yTRiC) (natural protein, Saccharomyces cerevisiae, UniProt P39076 1-527, looked up)
chain: MSVQIFGDQVTEERAENARLSAFVGAIAVGDLVKSTLGPKGMDKLLQSASSNTCMVTNDGATILKSIPLDNPAAKVLVNISKVQDDEVGDGTTSVTVLSAELLREAEKLIDQSKIHPQTIIEGYRLASAAALDALTKAAVDNSHDKTMFREDLIHIAKTTLSSKILSQDKDHFAELATNAILRLKGSTNLEHIQIIKILGGKLSDSFLDEGFILAKKFGNNQPKRIENAKILIANTTLDTDKVKIFGTKFKVDSTAKLAQLEKAEREKMKNKIAKISKFGINTFINRQLIYDYPEQLFTDLGINSIEHADFEGVERLALVTGGEVVSTFDEPSKCKLGECDVIEEIMLGEQPFLKFSGCKAGEACTIVLRGATDQTLDEAERSLHDALSVLSQTTKETRTVLGGGCAEMVMSKAVDTEAQNIDGKKSLAVEAFARALRQLPTILADNAGFDSSELVSKLRSSIYNGISTSGLDLNNGTIADMRQLGIVESYKLKRAVVSSASEAAEVLLRVDNIIRARPRTANRQHM
B5: CCT7, subunit of bovine TRiC/CCT (bTRiC) (natural protein, Bos taurus, UniProt Q2NKZ1 1-543, looked up)
chain: MMPTPVILLKEGTDSSQGIPQLVSNISACQVIAEAVRTTLGPRGMDKLIVDGRGKATISNDGATILKLLDVVHPAAKTLVDIAKSQDAEVGDGTTSVTLLAAEFLKQVKPYVEEGLHPQIIIRAFRTATQLAVNKIKEIAVTVKKEDKVEQRKLLEKCAMTALSSKLISQQKAFFAKMVVDAVMMLDDLLQLKMIGIKKVQGGALEESQLVAGVAFKKTFSYAGFEMQPKKYHNPMIALLNVELELKAEKDNAEIRVHTVEDYQAIVDAEWNILYDKLEKIHHSGAKVVLSKLPIGDVATQYFADRDMFCAGRVPEEDLKRTMMACGGSIQTSVNALSSDVLGRCQVFEETQIGGERYNFFTGCPKAKTCTIILRGGAEQFMEETERSLHDAIMIVRRAIKNDSVVAGGGAIEMELSKYLRDYSRTIPGKQQLLIGAYAKALEIIPRQLCDNAGFDATNILNKLRARHAQGGMWYGVDINTEDIADNFEAFVWEPAMVRINALTAASEAACLIVSVDETIKNPRSTVDASPAAGRGRGRGRLH

Common to all, as to assay: cross-linking
For assay [1], the target named is B2.
Assay [2] addresses CCT1, subunit of bovine TRiC/CCT (bTRiC) (Bos taurus, UniProt Q32L40 1-556).
Assay [3] deals with CCT4, subunit of yeast TRiC/CCT (yTRiC) (Saccharomyces cerevisiae, UniProt P39078 1-528).
Sequence of CCT4, subunit of yeast TRiC/CCT (yTRiC) (P39078 whole entry): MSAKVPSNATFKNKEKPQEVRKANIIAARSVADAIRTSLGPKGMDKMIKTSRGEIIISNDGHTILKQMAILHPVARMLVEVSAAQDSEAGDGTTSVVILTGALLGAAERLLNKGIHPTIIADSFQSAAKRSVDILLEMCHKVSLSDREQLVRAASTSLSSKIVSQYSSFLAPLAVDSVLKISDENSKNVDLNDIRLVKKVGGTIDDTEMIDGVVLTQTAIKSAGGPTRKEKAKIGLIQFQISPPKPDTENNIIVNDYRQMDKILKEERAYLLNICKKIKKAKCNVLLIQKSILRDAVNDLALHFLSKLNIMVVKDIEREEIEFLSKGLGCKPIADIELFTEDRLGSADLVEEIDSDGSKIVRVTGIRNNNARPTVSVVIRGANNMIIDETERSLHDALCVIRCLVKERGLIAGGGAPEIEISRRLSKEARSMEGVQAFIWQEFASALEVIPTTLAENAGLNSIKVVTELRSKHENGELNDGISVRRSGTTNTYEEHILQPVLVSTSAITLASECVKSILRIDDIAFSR
The target of assay [4] is T1, CCT8, subunit of bovine TRiC/CCT (bTRiC).

Sequence of CCT1, subunit of bovine TRiC/CCT (bTRiC) (Q32L40 whole entry): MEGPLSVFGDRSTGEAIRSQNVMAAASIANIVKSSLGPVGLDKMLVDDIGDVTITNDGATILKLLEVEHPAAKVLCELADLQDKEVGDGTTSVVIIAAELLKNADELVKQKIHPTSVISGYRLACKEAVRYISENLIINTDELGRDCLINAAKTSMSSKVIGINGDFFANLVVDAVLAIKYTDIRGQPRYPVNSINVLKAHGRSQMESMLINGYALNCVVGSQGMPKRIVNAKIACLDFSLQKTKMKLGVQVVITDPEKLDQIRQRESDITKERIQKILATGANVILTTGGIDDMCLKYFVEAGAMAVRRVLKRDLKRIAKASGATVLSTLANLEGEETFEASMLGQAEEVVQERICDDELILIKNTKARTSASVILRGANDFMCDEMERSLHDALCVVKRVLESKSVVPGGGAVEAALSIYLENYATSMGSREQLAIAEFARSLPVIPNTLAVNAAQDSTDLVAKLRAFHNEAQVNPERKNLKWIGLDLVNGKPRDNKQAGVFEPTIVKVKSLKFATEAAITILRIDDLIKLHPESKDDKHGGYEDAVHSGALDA

Regarding B1, the binding result in assay [1] is on record as “binds”.

Take B2: the binding result in assay [2] is on record as “binds”.

For the molecule B3, the binding result in assay [2] is reported as “binds”.

For B4, the binding result in assay [3] is “binds”.

Turning to B5, the binding result in assay [4] is “binds”.
